Measurements taken from patent US20130129746A1 (GlaxoSmithKline, published 2013).

B1: Rat Serum Albumin (other, UniProt P02770 25-608, looked up)
chain: EAHKSEIAHRFKDLGEQHFKGLVLIAFSQYLQKCPYEEHIKLVQEVTDFAKTCVADENAENCDKSIHTLFGDKLCAIPKLRDNYGELADCCAKQEPERNECFLQHKDDNPNLPPFQRPEAEAMCTSFQENPTSFLGHYLHEVARRHPYFYAPELLYYAEKYNEVLTQCCTESDKAACLTPKLDAVKEKALVAAVRQRMKCSSMQRFGERAFKAWAVARMSQRFPNAEFAEITKLATDVTKINKECCHGDLLECADDRAELAKYMCENQATISSKLQACCDKPVLQKSQCLAEIEHDNIPADLPSIAADFVEDKEVCKNYAEAKDVFLGTFLYEYSRRHPDYSVSLLLRLAKKYEATLEKCCAEGDPPACYGTVLAEFQPLVEEPKNLVKTNCELYEKLGEYGFQNAVLVRYTQKAPQVSTPTLVEAARNLGRVGTKCCTLPEAQRLPCVEDYLSAILNRLCVLHEKTPVSEKVTKCCSGSLVERRPCFSALTVDETYVPKEFKAETFTFHSDICTLPDKEKQIKKQTALAELVKHKPKATEDQLKTVMGDFAQFVDKCCKAADKDNCFATEGPNLVARSKEALA
notes: mature; purified protein on CM5 chips for BIAcore; also called RSA; rat SA

Columns and labels:
[1] = molecular target: B1; assay: BIAcore SPR;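 as to koff: purified dAbs run at 1 µM, 500 nM and 50 nM over human, cynomolgus, mouse and rat serum albumin in BIAcore binding measurements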
Protocol: (§1) Binding to HSA, CSA, MSA and RSA by BIAcore was confirmed using purified protein at 3 concentrations 1 μM, 500 nM and 50 nM.

[2] = molecular target: T1, Cynomolgus monkey Serum Albumin (Cynomolgus monkey, UniProt A2V9Z4 25-608); assay: BIAcore SPR;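 as to koff: purified dAbs run at 1 µM, 500 nM and 50 nM over human, cynomolgus, mouse and rat serum albumin in BIAcore binding measurements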
T1 construct: mature; purified protein on CM5 chips for BIAcore; also called CSA; cyno SA
Protocol: as §1

[3] = molecular target: T2, mouse serum albumin (mouse, UniProt P07724 25-608); assay: BIAcore SPR;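 as to koff: purified dAbs run at 1 µM, 500 nM and 50 nM over human, cynomolgus, mouse and rat serum albumin in BIAcore binding measurements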
T2 construct: mature; purified protein on CM5 chips for BIAcore; also called MSA; mouse SA
Protocol: as §1

[4] = molecular target: B1; assay: Albumin KD column of the PK table (repeats Table 6)
[5] = molecular target: T2, mouse serum albumin; assay: as above
[6] = molecular target: T1, Cynomolgus monkey Serum Albumin; assay: Albumin KD column of the PK table (row marked historical data; differs from Table 6); historical data (*), not the Table 6 run
[7] = molecular target: T3, Human Serum Albumin (human, UniProt P02768 25-609); assay: BIAcore SPR;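 as to koff: purified dAbs run at 1 µM, 500 nM and 50 nM over human, cynomolgus, mouse and rat serum albumin in BIAcore binding measurements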
T3 construct: mature; purified protein on CM5 chips for BIAcore; also called HSA; human SA
Protocol: as §1

[8] = molecular target: T3, Human Serum Albumin; assay: BIAcore SPR; remark: listed apart in the source
Description: (§2) MSA antigen was obtained from Sigma (essentially fatty acid free, ˜99% (agarose gel electrophoresis), lyophilized powder Cat. No. A3559) and CSA was purified from Cynomolgus serum albumin using prometic blue resin (Amersham).

[9] = molecular target: B1; assay: BIAcore SPR; remark: listed apart in the source
Description: as §2

[10] = molecular target: T1, Cynomolgus monkey Serum Albumin; assay: BIAcore SPR; remark: listed apart in the source
Description: as §2

[11] = molecular target: T2, mouse serum albumin; assay: BIAcore SPR; remark: listed apart in the source
Description: as §2

[12] = molecular target: T1, Cynomolgus monkey Serum Albumin; assay: Albumin KD column of the PK table (repeats Table 6)
[13] = molecular target: T3, Human Serum Albumin; assay: BIAcore SPR, second independent experiment;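 also: purified domain antibodies run as analytes at 50 nM, 500 nM and 1 µM over HSA, CSA, MSA and RSA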
Protocol: as §1

[14] = molecular target: B1; assay: BIAcore SPR, second independent experiment;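 also: purified domain antibodies run as analytes at 50 nM, 500 nM and 1 µM over HSA, CSA, MSA and RSA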
Protocol: as §1

[15] = molecular target: T1, Cynomolgus monkey Serum Albumin; assay: BIAcore SPR, second independent experiment;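 also: purified domain antibodies run as analytes at 50 nM, 500 nM and 1 µM over HSA, CSA, MSA and RSA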
Protocol: as §1

[16] = molecular target: T2, mouse serum albumin; assay: BIAcore SPR, second independent experiment;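 also: purified domain antibodies run as analytes at 50 nM, 500 nM and 1 µM over HSA, CSA, MSA and RSA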
Protocol: as §1

[17] = molecular target: B1; assay: BIAcore SPR, second independent experiment; second, independent SPR experiment (bracketed values)
Protocol: as §1

[18] = molecular target: B1; assay: BIAcore SPR (Albumin KD column)
[19] = molecular target: B1; assay: BIAcore SPR, DOM1m-21-23 fusion against unfused AlbudAb
[20] = molecular target: T4, DOM7h-14/Exendin-4 fusion DMS number 7138; assay: BIAcore SPR (Albumin KD column)
T4 construct: exendin-4, (G4S)3 linker, AlbudAb; also called DMS7138

[21] = molecular target: T5, DOM7h-14-10/Exendin-4 fusion DMS number 7139; assay: BIAcore SPR (Albumin KD column)
T5 construct: exendin-4, (G4S)3 linker, AlbudAb; also called DMS7139

[22] = molecular target: T6, DOM7h-14-18/Exendin-4 fusion DMS number 7140; assay: BIAcore SPR (Albumin KD column)
T6 construct: exendin-4, (G4S)3 linker, AlbudAb; also called DMS7140

[23] = molecular target: T7, DOM7h-14-19/Exendin-4 fusion DMS number 7141; assay: BIAcore SPR (Albumin KD column)
T7 construct: exendin-4, (G4S)3 linker, AlbudAb; also called DMS7141

[24] = molecular target: T8, DOM7h-11/Exendin-4 fusion DMS number 7142; assay: BIAcore SPR (Albumin KD column)
T8 construct: exendin-4, (G4S)3 linker, AlbudAb; also called DMS7142

[25] = molecular target: T9, DOM7h-11-12/Exendin-4 fusion DMS number 7147; assay: BIAcore SPR (Albumin KD column)
T9 construct: exendin-4, (G4S)3 linker, AlbudAb; also called DMS7147

[26] = molecular target: T10, DOM7h-11-15/Exendin-4 fusion DMS number 7143; assay: BIAcore SPR (Albumin KD column)
T10 construct: exendin-4, (G4S)3 linker, AlbudAb; also called DMS7143

[27] = molecular target: T1, Cynomolgus monkey Serum Albumin; assay: Albumin KD column of the PK table (repeats Table 6; row marked historical data)
[28] = molecular target: B1; assay: Albumin KD column of the PK table (repeats Table 6; row marked historical data); Albumin KD column of PK Table 10; historical data

T1 sequence (A2V9Z4 25-608): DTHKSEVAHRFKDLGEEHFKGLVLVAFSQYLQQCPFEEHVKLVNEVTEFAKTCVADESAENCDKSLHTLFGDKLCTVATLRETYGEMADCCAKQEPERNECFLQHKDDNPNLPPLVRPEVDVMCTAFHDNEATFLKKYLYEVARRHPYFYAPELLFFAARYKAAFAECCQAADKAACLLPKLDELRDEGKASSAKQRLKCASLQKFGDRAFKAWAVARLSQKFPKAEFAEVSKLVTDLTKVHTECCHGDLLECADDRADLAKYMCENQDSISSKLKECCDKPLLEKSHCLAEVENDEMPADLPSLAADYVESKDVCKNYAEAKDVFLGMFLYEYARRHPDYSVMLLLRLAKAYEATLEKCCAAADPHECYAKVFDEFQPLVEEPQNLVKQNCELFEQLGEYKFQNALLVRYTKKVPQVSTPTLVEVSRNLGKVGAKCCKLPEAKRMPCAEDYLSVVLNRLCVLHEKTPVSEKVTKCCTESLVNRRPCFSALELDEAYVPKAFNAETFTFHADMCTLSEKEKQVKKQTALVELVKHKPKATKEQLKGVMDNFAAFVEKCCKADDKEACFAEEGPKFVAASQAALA
T2 sequence (P07724 25-608): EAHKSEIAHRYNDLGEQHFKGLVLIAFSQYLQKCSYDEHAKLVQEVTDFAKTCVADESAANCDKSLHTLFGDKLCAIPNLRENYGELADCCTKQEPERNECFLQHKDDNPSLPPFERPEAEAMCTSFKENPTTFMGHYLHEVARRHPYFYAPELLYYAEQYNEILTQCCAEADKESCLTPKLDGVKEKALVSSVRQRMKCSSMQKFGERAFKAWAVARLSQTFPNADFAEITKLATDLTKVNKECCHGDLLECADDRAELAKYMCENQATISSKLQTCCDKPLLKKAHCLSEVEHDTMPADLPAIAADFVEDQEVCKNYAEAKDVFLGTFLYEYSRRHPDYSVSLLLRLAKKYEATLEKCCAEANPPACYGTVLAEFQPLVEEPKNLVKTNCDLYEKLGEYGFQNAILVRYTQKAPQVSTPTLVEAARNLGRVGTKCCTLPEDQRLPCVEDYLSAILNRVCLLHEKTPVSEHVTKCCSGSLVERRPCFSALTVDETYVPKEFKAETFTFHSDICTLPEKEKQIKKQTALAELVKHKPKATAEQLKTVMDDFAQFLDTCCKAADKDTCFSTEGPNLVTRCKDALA

Binder | Kd [1] | koff [1] | kon [1] | Kd [2] | koff [2] | kon [2] | Kd [3] | koff [3] | Kd [4] | Kd [7] | koff [7] | kon [7] | kon [3] | further results
DOM7h-11 (other) VL: DIQMTQSPSSLSASVGDRVTITCRASRPIGTTLSWYQQKPGKAPKLLIWFGSRLQSGVPSRFSGSGSGTDFTLTISSLQPEDFATYYCAQAGTHPTTFGQGTKVEIKR | 2100 nM | 0.1 s⁻¹ | 48000 M⁻¹ s⁻¹ | 1000 nM | 0.682 s⁻¹ | 800000 M⁻¹ s⁻¹ | 5000 nM | 0.9 s⁻¹ | 2100 nM |  |  |  |  | Kd [5]: 5000 nM; Kd [6]: 3300 nM
DOM7h-11-15 (other) VL: DIQMTQSPSSLSASVGDRVTITCRASRPIGTMLSWYQQKPGKAPKLLILAFSRLQSGVPSRFSGSGSGTDFTLTISSLQPEDFATYYCAQAGTHPTTFGQGTKVEIKR | 20 nM | 0.021 s⁻¹ | 1.1e+06 M⁻¹ s⁻¹ | 3 nM | 0.00557 s⁻¹ |  | 10 nM | 0.0094 s⁻¹ | 20 nM | 1 nM | 0.00184 s⁻¹ | 2e+06 M⁻¹ s⁻¹ | 1.1e+06 M⁻¹ s⁻¹ | Kd [8]: 1.4 nM; Kd [9]: 21 nM; Kd [10]: 5.3 nM; Kd [11]: 10.3 nM; Kd [12]: 3 nM; Kd [5]: 10 nM
DOM7h-11-3 (other) VL: DIQMTQSPSSLSASVGDRVTITCRASRPIGTTLSWYQQKPGKAPKLLILWNSRLQSGVPSRFSGSGSGTDFTLTISSLQPEDFATYYCAQAGTHPTTFGQGTKVEIKR | 10000 nM |  |  | 670 nM | 0.096 s⁻¹ | 290000 M⁻¹ s⁻¹ | ≥ 10000 nM |  |  | 32 nM | 0.016 s⁻¹ | 650000 M⁻¹ s⁻¹ |  | Kd [13]: 130 nM; koff [13]: 0.0235 s⁻¹; kon [13]: 186000 M⁻¹ s⁻¹; Kd [14]: 88000 nM; kon [14]: 8110 M⁻¹ s⁻¹; Kd [15]: 200 nM; koff [15]: 0.15 s⁻¹; kon [15]: 726000 M⁻¹ s⁻¹; Kd [16]: 36000 nM; koff [16]: 0.612 s⁻¹; kon [16]: 16700 M⁻¹ s⁻¹; koff [17]: 0.718 s⁻¹
DOM7h14-10/G4SC-NCE fusion (other, C-terminal Cys of the GGGGSC spacer conjugated by maleimide through a PEG 4 linker to the NCE (small molecule ADAMTS-4 inhibitor), AlbudAb-drug conjugate; also called DOM7h14-10 NCE-GGGGSC; DOM7h-14-10 GGGGSC) DIQMTQSPSSLSASVGDRVTITCRASQWIGSQLSWYQQKPGKAPKLLIMWRSSLQSGVPSRFSGSGSGTDFTLTISSLQPEDFATYYCAQGLRHPKTFGQGTKVEIKRGGGGSC |  |  |  |  |  |  |  |  |  |  |  |  |  | Kd [18]: 62 nM
DOM7h-11-12/DOM1m-21-23 fusion DMS number 5516 (other, also called DMS5516) EVQLLESGGGLVQPGGSLRLSCAASGFTFNRYSMGWLRQAPGKGLEWVSRIDSYGRGTYYEDPVKGRFSISRDNSKNTLYLQMNSLRAEDTAVYYCAKISQFGSNAFDYWGQGTQVTVSSASTSGPSDIQMTQSPSSLSASVGDRVTITCRASRPIGTMLSWYQQKPGKAPKLLILFGSRLQSGVPSRFSGSGSGTDFTLTISSLQPEDFATYYCAQAGTHPTTFGQGTKVEIKR |  |  |  |  |  |  |  |  |  |  |  |  |  | fold decrease in affinity to RSA compared to the unfused AlbudAb [19]: 2 fold
DOM7h-11-15/DOM1m-21-23 fusion DMS number 5517 (other, also called DMS5517) EVQLLESGGGLVQPGGSLRLSCAASGFTFNRYSMGWLRQAPGKGLEWVSRIDSYGRGTYYEDPVKGRFSISRDNSKNTLYLQMNSLRAEDTAVYYCAKISQFGSNAFDYWGQGTQVTVSSASTSGPSDIQMTQSPSSLSASVGDRVTITCRASRPIGTMLSWYQQKPGKAPKLLILAFSRLQSGVPSRFSGSGSGTDFTLTISSLQPEDFATYYCAQAGTHPTTFGQGTKVEIKR |  |  |  |  |  |  |  |  |  |  |  |  |  | fold decrease in affinity to RSA compared to the unfused AlbudAb [19]: 2 fold
B1 |  |  |  |  |  |  |  |  |  |  |  |  |  | Kd [20]: 2400 nM; Kd [21]: 19 nM; Kd [22]: 16000 nM; Kd [23]: 17000 nM; Kd [24]: 24000 nM; Kd [25]: 1400 nM; Kd [26]: 130 nM
DOM7h-14 (other, Vk dAb (AlbudAb)) VL: DIQMTQSPSSLSASVGDRVTITCRASQWIGSQLSWYQQKPGKAPKLLIMWRSSLQSGVPSRFSGSGSGTDFTLTISSLQPEDFATYYCAQGAALPRTFGQGTKVEIKR | 60 nM | 0.209 s⁻¹ | 4e+06 M⁻¹ s⁻¹ | 66 nM | 0.0965 s⁻¹ | 1.5e+06 M⁻¹ s⁻¹ | 12 nM | 0.0482 s⁻¹ |  | 33 nM | 0.0417 s⁻¹ | 1.43e+06 M⁻¹ s⁻¹ | 4.1e+06 M⁻¹ s⁻¹ | Kd [27]: 66 nM; Kd [28]: 60 nM
DOM7h-14-10 (other, Vk dAb (AlbudAb)) VL: DIQMTQSPSSLSASVGDRVTITCRASQWIGSQLSWYQQKPGKAPKLLIMWRSSLQSGVPSRFSGSGSGTDFTLTISSLQPEDFATYYCAQGLRHPKTFGQGTKVEIKR | 4 nM | 0.00964 s⁻¹ | 4.57e+06 M⁻¹ s⁻¹ | 9 nM | 0.0115 s⁻¹ | 1.6e+06 M⁻¹ s⁻¹ | 30 nM | 0.0341 s⁻¹ | 4 nM | 12 nM | 0.0139 s⁻¹ | 1.5e+06 M⁻¹ s⁻¹ | 1.29e+06 M⁻¹ s⁻¹ | Kd [12]: 9 nM
DOM7h14-10/TVAAPSC fusion (NCE conjugate) (other, C-terminal Cys of the TVAAPSC spacer conjugated by maleimide through a PEG 4 linker to the NCE (small molecule ADAMTS-4 inhibitor), AlbudAb-drug conjugate; also called DOM7h14-10 NCE-TVAAPSC) DIQMTQSPSSLSASVGDRVTITCRASQWIGSQLSWYQQKPGKAPKLLIMWRSSLQSGVPSRFSGSGSGTDFTLTISSLQPEDFATYYCAQGLRHPKTFGQGTKVEIKRTVAAPSC |  |  |  |  |  |  |  |  |  |  |  |  |  | Kd [18]: 35 nM
